Test results reported in the Immune Epitope Database (IEDB).
Values belong to the sequence of their own block, whether it stands above or below them.

Assays:
HLA-B*39:01 [1] = experiment: IEDB peptide-MHC binding, purified MHC/direct/fluorescence; filed as Kd, often an IC50 or EC50 that approximates it; ≥ and ≤ were set here for values at or beyond the usual limits of such assays; details: source organism: Mycobacterium tuberculosis
HLA-A*03:01 [2] = experiment: as above
HLA-B*57:01 [3] = experiment: as above; details: source organism: Mycobacterium tuberculosis
HLA-B*46:01 [4] = experiment: as above; details: source organism: Mycobacterium tuberculosis
HLA-B*44:02 = experiment: as above; details: source organism: Mycobacterium tuberculosis
HLA-B*07:02 = experiment: as above
HLA-A*31:01 = experiment: as above
HLA-B*15:01 [5] = experiment: as above
HLA-B*48:01 = experiment: as above; details: source organism: Mycobacterium tuberculosis
HLA-A*69:01 [6] = experiment: as above
HLA-A*01:01 = experiment: as above
HLA-B*58:01 = experiment: as above
HLA-B*18:01 [7] = experiment: as above; details: source organism: Mycobacterium tuberculosis
HLA-A*29:02 = experiment: as above
HLA-B*27:05 = experiment: as above
HLA-B*51:01 [8] = experiment: as above
HLA-B*53:01 = experiment: IEDB peptide-MHC binding, purified MHC/competitive/radioactivity; filed as Kd, often an IC50 or EC50 that approximates it; ≥ and ≤ were set here for values at or beyond the usual limits of such assays; details: source organism: Dengue virus 1 Brazil/97-11/1997
HLA-A*30:01 = experiment: IEDB peptide-MHC binding, purified MHC/direct/fluorescence; filed as Kd, often an IC50 or EC50 that approximates it; ≥ and ≤ were set here for values at or beyond the usual limits of such assays
HLA-A*26:01 [9] = experiment: as above
HLA-A*24:03 = experiment: as above
HLA-A*02:01 [10] = experiment: as above
HLA-A*11:01 = experiment: as above
HLA-B*08:01 = experiment: as above
HLA-B*40:01 = experiment: as above
HLA-A*02:03 = experiment: as above; details: source organism: Zaire ebolavirus
HLA-A*68:02 [11] = experiment: as above; details: source organism: Zaire ebolavirus
HLA-A*02:12 [12] = experiment: as above; details: source organism: Zaire ebolavirus
HLA-A*02:16 = experiment: as above; details: source organism: Zaire ebolavirus
HLA-A*02:19 [13] = experiment: as above; details: source organism: Zaire ebolavirus
HLA-A*02:11 = experiment: as above; details: source organism: Zaire ebolavirus
HLA-A*26:01 [14] = experiment: IEDB peptide-MHC binding, purified MHC/competitive/fluorescence; filed as Kd, often an IC50 or EC50 that approximates it; ≥ and ≤ were set here for values at or beyond the usual limits of such assays
HLA-B*39:01 [15] = experiment: as above
HLA-B*27:03 = experiment: as above
HLA-B*57:01 [16] = experiment: as above
HLA-B*46:01 [17] = experiment: as above
HLA-B*51:01 [18] = experiment: as above
HLA-B*15:17 = experiment: as above
HLA-B*15:01 [19] = experiment: as above
HLA-A*02:01 [20] = experiment: as above
HLA-A*69:01 [21] = experiment: as above
HLA-B*18:01 [22] = experiment: as above
HLA-A*03:01 [23] = experiment: as above; details: source organism: Homo sapiens
HLA-A*68:02 [24] = experiment: as above; details: source organism: Homo sapiens
HLA-A*02:12 [25] = experiment: as above; details: source organism: Homo sapiens
HLA-A*02:19 [26] = experiment: as above; details: source organism: Homo sapiens
[27] = source organism: Mycobacterium tuberculosis
[28] = source organism: Yersinia pestis
[29] = source organism: Haemophilus influenzae
[30] = source organism: Corynebacterium glutamicum
[31] = source organism: Corynebacterium efficiens
[32] = source organism: Zaire ebolavirus

Sequence: QQDTNSAGL
- Kd (HLA-B*39:01 [1]): 0.301 µM
- Kd (HLA-A*03:01 [2]; [27]): ≥ 20 µM
- Kd (HLA-B*57:01 [3]): ≥ 20 µM
- Kd (HLA-B*46:01 [4]): ≥ 20 µM
- Kd (HLA-B*44:02): ≥ 20 µM
- Kd (HLA-B*07:02; [27]): ≥ 20 µM
- Kd (HLA-A*31:01; [27]): ≥ 20 µM
- Kd (HLA-B*15:01 [5]; [27]): ≥ 20 µM
- Kd (HLA-B*48:01): ≥ 20 µM
- Kd (HLA-A*69:01 [6]; [27]): ≥ 20 µM
- Kd (HLA-A*01:01; [27]): ≥ 20 µM
- Kd (HLA-B*58:01; [27]): ≥ 20 µM
- Kd (HLA-B*18:01 [7]): ≥ 20 µM
- Kd (HLA-A*29:02; [27]): ≥ 20 µM
- Kd (HLA-B*27:05; [27]): ≥ 20 µM

Sequence: CPTQGEATL
- Kd (HLA-B*51:01 [8]; source organism: Dengue virus): ≥ 20 µM
- Kd (HLA-B*53:01): 0.0199 µM

Sequence: LPLEFWQAW
- Kd (HLA-B*51:01 [8]; [28]): ≥ 20 µM
- Kd (HLA-B*07:02; [28]): 0.235 µM
- Kd (HLA-B*15:01 [5]; source organism: Yersinia enterocolitica subsp. enterocolitica 8081): ≥ 20 µM

- Kd (HLA-A*30:01; [29]): 0.00063 µM
- Kd (HLA-A*26:01 [9]; [29]): ≥ 20 µM
- Kd (HLA-A*03:01 [2]; [29]): 0.0531 µM
- Kd (HLA-A*24:03; [29]): ≥ 20 µM
- Kd (HLA-B*07:02; [29]): ≥ 20 µM
- Kd (HLA-A*31:01; [29]): 0.0202 µM
- Kd (HLA-B*15:01 [5]; [29]): ≥ 20 µM
- Kd (HLA-A*02:01 [10]; [29]): ≥ 20 µM
- Kd (HLA-A*11:01; [29]): 0.0142 µM
- Kd (HLA-A*69:01 [6]; [29]): ≥ 20 µM
- Kd (HLA-A*01:01; [29]): 14.5 µM
- Kd (HLA-B*08:01; [29]): 5.63 µM
- Kd (HLA-B*40:01; [29]): ≥ 20 µM
- Kd (HLA-B*27:05; [29]): ≥ 20 µM
Sequence: MTMRRRLFK

- Kd (HLA-A*30:01; [30]): 1.49 µM
- Kd (HLA-A*26:01 [9]; [31]): ≥ 20 µM
- Kd (HLA-A*03:01 [2]; [30]): 0.242 µM
- Kd (HLA-A*24:03; [31]): ≥ 20 µM
- Kd (HLA-B*07:02; [31]): ≥ 20 µM
- Kd (HLA-A*31:01; [30]): 4.37 µM
- Kd (HLA-B*15:01 [5]; [31]): ≥ 20 µM
- Kd (HLA-A*02:01 [10]; [31]): ≥ 20 µM
- Kd (HLA-A*11:01; [30]): 0.07 µM
- Kd (HLA-A*69:01 [6]; [31]): ≥ 20 µM
- Kd (HLA-A*01:01; [31]): ≥ 20 µM
- Kd (HLA-B*58:01; [31]): ≥ 20 µM
- Kd (HLA-B*08:01; [31]): ≥ 20 µM
- Kd (HLA-B*40:01; [31]): ≥ 20 µM
- Kd (HLA-B*27:05; [31]): ≥ 20 µM
Sequence: KLGDQFGRK

Sequence: AFHQLVQVI
- Kd (HLA-A*03:01 [2]; [32]): ≥ 20 µM
- Kd (HLA-A*02:03): ≥ 20 µM
- Kd (HLA-A*68:02 [11]): ≥ 20 µM
- Kd (HLA-A*24:03; source organism: Reston ebolavirus - Reston): 0.0021 µM
- Kd (HLA-A*02:12 [12]): ≥ 20 µM
- Kd (HLA-A*02:16): ≥ 20 µM
- Kd (HLA-A*02:19 [13]): ≥ 20 µM
- Kd (HLA-A*02:11): ≥ 20 µM
- Kd (HLA-A*29:02; [32]): ≥ 20 µM
- Kd (HLA-A*26:01 [14]; [32]): ≥ 20 µM
- Kd (HLA-B*39:01 [15]; [32]): ≥ 20 µM
- Kd (HLA-B*27:03; [32]): ≥ 20 µM
- Kd (HLA-B*57:01 [16]; [32]): ≥ 20 µM
- Kd (HLA-B*46:01 [17]; [32]): ≥ 20 µM
- Kd (HLA-B*51:01 [18]; [32]): ≥ 20 µM
- Kd (HLA-B*15:17; [32]): ≥ 20 µM
- Kd (HLA-B*15:01 [19]; [32]): ≥ 20 µM
- Kd (HLA-A*02:01 [20]; [32]): ≥ 20 µM
- Kd (HLA-A*69:01 [21]; [32]): ≥ 20 µM
- Kd (HLA-B*18:01 [22]; [32]): ≥ 20 µM

- Kd (HLA-A*26:01 [14]; source organism: Homo sapiens): ≥ 20 µM
- Kd (HLA-B*39:01 [15]; source organism: Homo sapiens): ≥ 20 µM
- Kd (HLA-A*03:01 [23]): ≥ 20 µM
- Kd (HLA-B*27:03; source organism: Homo sapiens): ≥ 20 µM
- Kd (HLA-A*68:02 [24]): ≥ 20 µM
- Kd (HLA-B*57:01 [16]; source organism: Homo sapiens): ≥ 20 µM
- Kd (HLA-B*46:01 [17]; source organism: Homo sapiens): ≥ 20 µM
- Kd (HLA-B*51:01 [18]; source organism: Homo sapiens): ≥ 20 µM
- Kd (HLA-B*15:17; source organism: Homo sapiens): ≥ 20 µM
- Kd (HLA-B*15:01 [19]; source organism: Homo sapiens): ≥ 20 µM
- Kd (HLA-A*02:01 [20]; source organism: Homo sapiens): 0.196 µM
- Kd (HLA-A*02:12 [25]): ≥ 20 µM
- Kd (HLA-A*69:01 [21]; source organism: Homo sapiens): ≥ 20 µM
- Kd (HLA-B*18:01 [22]; source organism: Homo sapiens): ≥ 20 µM
- Kd (HLA-A*02:19 [26]): ≥ 20 µM
Sequence: SLFNWLWYE
